One data set concerns the target T1, AvGAPDH (Fannyhessea vaginae, UniProt F1T6A5).
T1 construct: gene gap; recombinant, expressed and purified by similar protocols as previously described, homotetramer
The format is biochemical.

Another data set has as its target T2, SpGAPDH (Streptococcus pyogenes, UniProt P68777).
T2 construct: gene gap

In data set [1] the test system is NC(=O)c1ccc[n+]([C@@H]2O[C@H](COP(=O)(O)OP(=O)(O)OC[C@H]3O[C@@H](n4cnc5c(N)ncnc54)[C@H](O)[C@@H]3O)[C@@H](O)[C@H]2O)c1. Kind of data set: purified protein. The conditions noted are these: 5 mM G3P, 50 mM Pi, pH 8.5, 25°C.
The subject of a further data set is O=C[C@H](O)COP(=O)(O)O. Kind of data set: purified protein. The conditions noted are these: 2 mM NAD+, 50 mM Pi, pH 8.5, 25°C.

T2 sequence (P68777 whole entry): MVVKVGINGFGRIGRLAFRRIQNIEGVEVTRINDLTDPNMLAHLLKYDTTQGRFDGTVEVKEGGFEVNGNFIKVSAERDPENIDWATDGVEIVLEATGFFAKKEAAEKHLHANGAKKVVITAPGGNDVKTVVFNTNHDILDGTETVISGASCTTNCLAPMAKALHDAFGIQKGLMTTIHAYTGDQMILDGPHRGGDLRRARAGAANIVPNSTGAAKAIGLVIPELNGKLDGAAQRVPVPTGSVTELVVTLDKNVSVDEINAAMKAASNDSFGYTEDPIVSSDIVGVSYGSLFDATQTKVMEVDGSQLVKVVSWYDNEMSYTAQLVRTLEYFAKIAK
T1 sequence (F1T6A5 entry or part of it): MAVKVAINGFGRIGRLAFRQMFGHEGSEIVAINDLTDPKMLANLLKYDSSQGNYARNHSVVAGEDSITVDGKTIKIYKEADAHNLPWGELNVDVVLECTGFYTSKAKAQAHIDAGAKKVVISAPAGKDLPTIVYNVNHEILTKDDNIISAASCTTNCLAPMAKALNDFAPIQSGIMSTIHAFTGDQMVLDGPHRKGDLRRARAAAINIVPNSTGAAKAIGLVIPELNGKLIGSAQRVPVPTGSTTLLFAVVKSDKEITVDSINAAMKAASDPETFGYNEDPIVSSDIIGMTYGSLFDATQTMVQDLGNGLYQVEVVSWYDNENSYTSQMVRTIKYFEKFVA

For `CCCCCCCCCCCCCCCc1cccc(O)c1C(=O)O` [anacardic acid, 6-pentadecylsalicylic acid], the Ki on AvGAPDH was 1.25 ± 0.08 µM; on SpGAPDH it was 3.3 ± 0.3 µM.
For `COc1cc(/C=C/C(=O)CC(=O)/C=C/c2ccc(O)c(OC)c2)ccc1O` [curcumin], the inhibition constant Ki at AvGAPDH stood at 39 ± 3 µM; at SpGAPDH it was 38 ± 4 µM.
On to “SpGAPDH (Streptococcus pyogenes MGAS8232)”, for which, in data set [1], the Km came to 280 ± 30 µM, the maximum rate (Vmax) was found to be 2.24e+06 µM/min/mg and the kcat was determined as 3730 ± 100 s⁻¹. In addition, in the data set with O=C[C@H](O)COP(=O)(O)O, the Km was determined as 2800 ± 300 µM, the Vmax came out at 3.67e+06 µM/min/mg, the kcat came out at 6110 ± 260 s⁻¹ and the kcat/Km is 2.18e+06 ± 320000 M⁻¹ s⁻¹.

One may read the Ki as a measure of affinity in units of concentration, obtained from inhibition or displacement. Read a high Ki as a looser hold on the target. One may read the Km as the concentration of substrate that gives half-maximal velocity. What is called Vmax is the rate approached at saturating substrate. By kcat is commonly meant the maximal rate divided by the concentration of active sites. By kcat/Km is commonly meant the turnover number divided by the Michaelis constant.

(Values after PMC6400076 (Frontiers in Microbiology, 2019).)
